Results published in paper doi:10.1101/2023.12.13.571504 (bioRxiv, 2023).
Substitutions are numbered along the chain they refer to. In names and notes the source's numbering stands.

Target: the molecule itself
Test: cross-linking

B1: msfGFP-GRP8^WT (Arabidopsis thaliana Glycine-Rich RNA-Binding Protein 8 fused to monomeric superfolder GFP) (natural protein, UniProt Q03251 1-169, looked up)
chain: MSEVEYRCFVGGLAWATNDEDLQRTFSQFGDVIDSKIINDRESGRSRGFGFVTFKDEKAMRDAIEEMNGKELDGRVITVNEAQSRGSGGGGGGRGGSGGGYRSGGGGGYSGGGGGGYSGGGGGGYERRSGGYGSGGGGGGRGYGGGGRREGGGYGGGDGGSYGGGGGGW
B1 was tested. Which “stoichiometry N” value did it give?
Its value is 2.

B2: msfGFP-GRP8^R7A (natural protein, Arabidopsis thaliana, UniProt Q03251 1-169, looked up)
chain: B1 chain with R7A
Does B2 bind?
Result: binds
